Data reported in patent publication US20210032299A1.
Starred links: 1 amine or outer side, 2 acyl side, 3 side chain; linkers in the order of their positions; H or OH if unused. Non-standard residues stand in square brackets, D forms with d. Groups on a side chain read outwards from the residue. No end group written: not given here. *: point of attachment. C20 diacid = O=C(O)CCCCCCCCCCCCCCCCCCC(=O)*; C18 diacid = O=C(O)CCCCCCCCCCCCCCCCC(=O)*; αMePhe(2-F) = C[C@](N)(Cc1ccccc1F)C(=O)O; γGlu = O=C(O)[C@H](CCC(=O)[*:2])N[*:1]; 4Pal = N[C@@H](Cc1ccncc1)C(=O)O; αMeL = CC(C)C[C@](C)(N)C(=O)O; Orn = NCCC[C@H](N)C(=O)O; AEEA = NCCOCCOCC(=O)O; Aib = CC(C)(N)C(=O)O

T1: human glucose-dependent insulinotropic polypeptide (GIP) receptor (human), P48546
T1 chain: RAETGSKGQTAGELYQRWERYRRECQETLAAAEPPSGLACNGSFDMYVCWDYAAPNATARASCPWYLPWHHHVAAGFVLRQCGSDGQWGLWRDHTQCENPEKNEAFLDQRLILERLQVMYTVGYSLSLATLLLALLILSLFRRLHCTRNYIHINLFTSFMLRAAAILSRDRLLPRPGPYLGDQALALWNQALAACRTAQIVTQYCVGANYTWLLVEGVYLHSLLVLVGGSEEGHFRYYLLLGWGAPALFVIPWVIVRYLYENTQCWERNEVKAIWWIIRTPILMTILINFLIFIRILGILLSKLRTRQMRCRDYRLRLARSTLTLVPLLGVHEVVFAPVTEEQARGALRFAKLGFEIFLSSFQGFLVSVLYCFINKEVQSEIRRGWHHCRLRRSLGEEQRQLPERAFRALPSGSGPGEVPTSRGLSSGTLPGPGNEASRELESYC

B1: Example 111 (peptide)
peptide: Y[Aib]EGTFISDYSI[αMeL]LD[Orn]IHQ[Aib]DFVE[4Pal]K([AEEA-AEEA-γGlu-C18 diacid])LEGGPSSGAPPPS-NH2
modifications: N-terminus assumed
SMILES: CC[C@H](C)[C@H](NC(=O)[C@H](CCCN)NC(=O)[C@H](CC(=O)O)NC(=O)[C@H](CC(C)C)NC(=O)[C@](C)(CC(C)C)NC(=O)[C@@H](NC(=O)[C@H](CO)NC(=O)[C@H](Cc1ccc(O)cc1)NC(=O)[C@H](CC(=O)O)NC(=O)[C@H](CO)NC(=O)[C@@H](NC(=O)[C@H](Cc1ccccc1)NC(=O)[C@@H](NC(=O)CNC(=O)[C@H](CCC(=O)O)NC(=O)C(C)(C)NC(=O)[C@@H](N)Cc1ccc(O)cc1)[C@@H](C)O)[C@@H](C)CC)[C@@H](C)CC)C(=O)N[C@@H](Cc1c[nH]cn1)C(=O)N[C@@H](CCC(N)=O)C(=O)NC(C)(C)C(=O)N[C@@H](CC(=O)O)C(=O)N[C@@H](Cc1ccccc1)C(=O)N[C@H](C(=O)N[C@@H](CCC(=O)O)C(=O)N[C@@H](Cc1ccncc1)C(=O)N[C@@H](CCCCNC(=O)COCCOCCNC(=O)COCCOCCNC(=O)CC[C@H](NC(=O)CCCCCCCCCCCCCCCCC(=O)O)C(=O)O)C(=O)N[C@@H](CC(C)C)C(=O)N[C@@H](CCC(=O)O)C(=O)NCC(=O)NCC(=O)N1CCC[C@H]1C(=O)N[C@@H](CO)C(=O)N[C@@H](CO)C(=O)NCC(=O)N[C@@H](C)C(=O)N1CCC[C@H]1C(=O)N1CCC[C@H]1C(=O)N1CCC[C@H]1C(=O)N[C@@H](CO)C(N)=O)C(C)C
B2: Example 110 (peptide)
peptide: Y[Aib]EGTFISDYSI[αMeL]LDKIHQ[Aib]DFVE[4Pal]K([AEEA-AEEA-γGlu-C18 diacid])LEGGPSSGAPPPS-NH2
modifications: N-terminus assumed
SMILES: CC[C@H](C)[C@H](NC(=O)[C@H](CCCCN)NC(=O)[C@H](CC(=O)O)NC(=O)[C@H](CC(C)C)NC(=O)[C@](C)(CC(C)C)NC(=O)[C@@H](NC(=O)[C@H](CO)NC(=O)[C@H](Cc1ccc(O)cc1)NC(=O)[C@H](CC(=O)O)NC(=O)[C@H](CO)NC(=O)[C@@H](NC(=O)[C@H](Cc1ccccc1)NC(=O)[C@@H](NC(=O)CNC(=O)[C@H](CCC(=O)O)NC(=O)C(C)(C)NC(=O)[C@@H](N)Cc1ccc(O)cc1)[C@@H](C)O)[C@@H](C)CC)[C@@H](C)CC)C(=O)N[C@@H](Cc1c[nH]cn1)C(=O)N[C@@H](CCC(N)=O)C(=O)NC(C)(C)C(=O)N[C@@H](CC(=O)O)C(=O)N[C@@H](Cc1ccccc1)C(=O)N[C@H](C(=O)N[C@@H](CCC(=O)O)C(=O)N[C@@H](Cc1ccncc1)C(=O)N[C@@H](CCCCNC(=O)COCCOCCNC(=O)COCCOCCNC(=O)CC[C@H](NC(=O)CCCCCCCCCCCCCCCCC(=O)O)C(=O)O)C(=O)N[C@@H](CC(C)C)C(=O)N[C@@H](CCC(=O)O)C(=O)NCC(=O)NCC(=O)N1CCC[C@H]1C(=O)N[C@@H](CO)C(=O)N[C@@H](CO)C(=O)NCC(=O)N[C@@H](C)C(=O)N1CCC[C@H]1C(=O)N1CCC[C@H]1C(=O)N1CCC[C@H]1C(=O)N[C@@H](CO)C(N)=O)C(C)C
B3: Example 114 (peptide)
peptide: Y[Aib]EGT[αMePhe(2-F)]ISDYSIALDKIHQ[Aib]DFVE[4Pal]K([AEEA-AEEA-γGlu-C20 diacid])LEQGPSSGAPPPS-NH2
modifications: N-terminus assumed
SMILES: CC[C@H](C)[C@H](NC(=O)[C@H](CO)NC(=O)[C@H](Cc1ccc(O)cc1)NC(=O)[C@H](CC(=O)O)NC(=O)[C@H](CO)NC(=O)[C@@H](NC(=O)[C@](C)(Cc1ccccc1F)NC(=O)[C@@H](NC(=O)CNC(=O)[C@H](CCC(=O)O)NC(=O)C(C)(C)NC(=O)[C@@H](N)Cc1ccc(O)cc1)[C@@H](C)O)[C@@H](C)CC)C(=O)N[C@@H](C)C(=O)N[C@@H](CC(C)C)C(=O)N[C@@H](CC(=O)O)C(=O)N[C@@H](CCCCN)C(=O)N[C@H](C(=O)N[C@@H](Cc1c[nH]cn1)C(=O)N[C@@H](CCC(N)=O)C(=O)NC(C)(C)C(=O)N[C@@H](CC(=O)O)C(=O)N[C@@H](Cc1ccccc1)C(=O)N[C@H](C(=O)N[C@@H](CCC(=O)O)C(=O)N[C@@H](Cc1ccncc1)C(=O)N[C@@H](CCCCNC(=O)COCCOCCNC(=O)COCCOCCNC(=O)CC[C@H](NC(=O)CCCCCCCCCCCCCCCCCCC(=O)O)C(=O)O)C(=O)N[C@@H](CC(C)C)C(=O)N[C@@H](CCC(=O)O)C(=O)N[C@@H](CCC(N)=O)C(=O)NCC(=O)N1CCC[C@H]1C(=O)N[C@@H](CO)C(=O)N[C@@H](CO)C(=O)NCC(=O)N[C@@H](C)C(=O)N1CCC[C@H]1C(=O)N1CCC[C@H]1C(=O)N1CCC[C@H]1C(=O)N[C@@H](CO)C(N)=O)C(C)C)[C@@H](C)CC
B4: Example 118 (peptide)
peptide: Y[Aib]EGTFISDYSI[αMeL]LDKIRQ[Aib]DFVEYK([AEEA-AEEA-γGlu-C20 diacid])LEAGPSSGAPPPS-NH2
modifications: N-terminus assumed
SMILES: CC[C@H](C)[C@H](NC(=O)[C@H](CCCCN)NC(=O)[C@H](CC(=O)O)NC(=O)[C@H](CC(C)C)NC(=O)[C@](C)(CC(C)C)NC(=O)[C@@H](NC(=O)[C@H](CO)NC(=O)[C@H](Cc1ccc(O)cc1)NC(=O)[C@H](CC(=O)O)NC(=O)[C@H](CO)NC(=O)[C@@H](NC(=O)[C@H](Cc1ccccc1)NC(=O)[C@@H](NC(=O)CNC(=O)[C@H](CCC(=O)O)NC(=O)C(C)(C)NC(=O)[C@@H](N)Cc1ccc(O)cc1)[C@@H](C)O)[C@@H](C)CC)[C@@H](C)CC)C(=O)N[C@@H](CCCNC(=N)N)C(=O)N[C@@H](CCC(N)=O)C(=O)NC(C)(C)C(=O)N[C@@H](CC(=O)O)C(=O)N[C@@H](Cc1ccccc1)C(=O)N[C@H](C(=O)N[C@@H](CCC(=O)O)C(=O)N[C@@H](Cc1ccc(O)cc1)C(=O)N[C@@H](CCCCNC(=O)COCCOCCNC(=O)COCCOCCNC(=O)CC[C@H](NC(=O)CCCCCCCCCCCCCCCCCCC(=O)O)C(=O)O)C(=O)N[C@@H](CC(C)C)C(=O)N[C@@H](CCC(=O)O)C(=O)N[C@@H](C)C(=O)NCC(=O)N1CCC[C@H]1C(=O)N[C@@H](CO)C(=O)N[C@@H](CO)C(=O)NCC(=O)N[C@@H](C)C(=O)N1CCC[C@H]1C(=O)N1CCC[C@H]1C(=O)N1CCC[C@H]1C(=O)N[C@@H](CO)C(N)=O)C(C)C

Molecular target: T1, human glucose-dependent insulinotropic …
Assay: SPA, displacement of [125I]-GIP from hGIPR membranes, 0.1% bacitracin
B1 was tested, and the Ki was 0.0871 nM.
With B2 the Ki was 0.339 nM.
Binder B3 has a Ki of 0.121 nM.
In the case of B4, the Ki is reported as 0.0696 nM.
